Measurements as given in the supplement of paper PMC9876800.

Test system: peptide library, one residue held at a place counted from the S/T acceptor
Experiment: relative phosphorylation of the sub-library (ratio to the mean residue at this position); higher = residue favoured
Outline: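 Relative sub-library phosphorylation is a ratio to the mean residue at the same position. Purified recombinant kinases were incubated under kinase-specific conditions with biotinylated degenerate peptide sub-libraries, each fixing one residue at one position around a central Ser/Thr, using 50 μM peptide and 50 μM ATP spiked with γ-32P-ATP for 90 min. Spots captured on streptavidin membranes were phosphorimaged and quantified by densitometry.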

PIM2, construct: Full length with a 14aa C-terminal extension from Gateway cloning, human, sequence (Q9P1W9 whole entry, looked up): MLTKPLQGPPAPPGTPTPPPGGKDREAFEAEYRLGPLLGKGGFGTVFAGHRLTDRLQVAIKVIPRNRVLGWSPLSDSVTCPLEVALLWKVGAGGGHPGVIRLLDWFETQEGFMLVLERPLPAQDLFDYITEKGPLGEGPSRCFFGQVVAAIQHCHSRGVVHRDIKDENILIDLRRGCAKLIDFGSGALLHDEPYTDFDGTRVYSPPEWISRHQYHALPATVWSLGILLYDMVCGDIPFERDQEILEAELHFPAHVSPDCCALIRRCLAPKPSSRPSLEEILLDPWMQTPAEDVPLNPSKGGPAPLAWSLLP
WNK1, construct: aa171-529, human, sequence (Q9H4A3 171-529, looked up): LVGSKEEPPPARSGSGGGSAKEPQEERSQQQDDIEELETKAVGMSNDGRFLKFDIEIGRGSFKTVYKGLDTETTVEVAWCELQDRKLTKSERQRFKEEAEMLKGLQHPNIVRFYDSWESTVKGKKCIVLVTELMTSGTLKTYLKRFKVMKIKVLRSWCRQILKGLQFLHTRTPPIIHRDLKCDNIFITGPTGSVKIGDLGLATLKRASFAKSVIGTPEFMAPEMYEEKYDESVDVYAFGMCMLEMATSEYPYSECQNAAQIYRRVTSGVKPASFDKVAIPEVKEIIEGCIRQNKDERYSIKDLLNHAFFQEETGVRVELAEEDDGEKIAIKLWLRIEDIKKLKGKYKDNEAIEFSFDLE
ATR, construct: Full length, human, sequence (Q13535 whole entry, looked up): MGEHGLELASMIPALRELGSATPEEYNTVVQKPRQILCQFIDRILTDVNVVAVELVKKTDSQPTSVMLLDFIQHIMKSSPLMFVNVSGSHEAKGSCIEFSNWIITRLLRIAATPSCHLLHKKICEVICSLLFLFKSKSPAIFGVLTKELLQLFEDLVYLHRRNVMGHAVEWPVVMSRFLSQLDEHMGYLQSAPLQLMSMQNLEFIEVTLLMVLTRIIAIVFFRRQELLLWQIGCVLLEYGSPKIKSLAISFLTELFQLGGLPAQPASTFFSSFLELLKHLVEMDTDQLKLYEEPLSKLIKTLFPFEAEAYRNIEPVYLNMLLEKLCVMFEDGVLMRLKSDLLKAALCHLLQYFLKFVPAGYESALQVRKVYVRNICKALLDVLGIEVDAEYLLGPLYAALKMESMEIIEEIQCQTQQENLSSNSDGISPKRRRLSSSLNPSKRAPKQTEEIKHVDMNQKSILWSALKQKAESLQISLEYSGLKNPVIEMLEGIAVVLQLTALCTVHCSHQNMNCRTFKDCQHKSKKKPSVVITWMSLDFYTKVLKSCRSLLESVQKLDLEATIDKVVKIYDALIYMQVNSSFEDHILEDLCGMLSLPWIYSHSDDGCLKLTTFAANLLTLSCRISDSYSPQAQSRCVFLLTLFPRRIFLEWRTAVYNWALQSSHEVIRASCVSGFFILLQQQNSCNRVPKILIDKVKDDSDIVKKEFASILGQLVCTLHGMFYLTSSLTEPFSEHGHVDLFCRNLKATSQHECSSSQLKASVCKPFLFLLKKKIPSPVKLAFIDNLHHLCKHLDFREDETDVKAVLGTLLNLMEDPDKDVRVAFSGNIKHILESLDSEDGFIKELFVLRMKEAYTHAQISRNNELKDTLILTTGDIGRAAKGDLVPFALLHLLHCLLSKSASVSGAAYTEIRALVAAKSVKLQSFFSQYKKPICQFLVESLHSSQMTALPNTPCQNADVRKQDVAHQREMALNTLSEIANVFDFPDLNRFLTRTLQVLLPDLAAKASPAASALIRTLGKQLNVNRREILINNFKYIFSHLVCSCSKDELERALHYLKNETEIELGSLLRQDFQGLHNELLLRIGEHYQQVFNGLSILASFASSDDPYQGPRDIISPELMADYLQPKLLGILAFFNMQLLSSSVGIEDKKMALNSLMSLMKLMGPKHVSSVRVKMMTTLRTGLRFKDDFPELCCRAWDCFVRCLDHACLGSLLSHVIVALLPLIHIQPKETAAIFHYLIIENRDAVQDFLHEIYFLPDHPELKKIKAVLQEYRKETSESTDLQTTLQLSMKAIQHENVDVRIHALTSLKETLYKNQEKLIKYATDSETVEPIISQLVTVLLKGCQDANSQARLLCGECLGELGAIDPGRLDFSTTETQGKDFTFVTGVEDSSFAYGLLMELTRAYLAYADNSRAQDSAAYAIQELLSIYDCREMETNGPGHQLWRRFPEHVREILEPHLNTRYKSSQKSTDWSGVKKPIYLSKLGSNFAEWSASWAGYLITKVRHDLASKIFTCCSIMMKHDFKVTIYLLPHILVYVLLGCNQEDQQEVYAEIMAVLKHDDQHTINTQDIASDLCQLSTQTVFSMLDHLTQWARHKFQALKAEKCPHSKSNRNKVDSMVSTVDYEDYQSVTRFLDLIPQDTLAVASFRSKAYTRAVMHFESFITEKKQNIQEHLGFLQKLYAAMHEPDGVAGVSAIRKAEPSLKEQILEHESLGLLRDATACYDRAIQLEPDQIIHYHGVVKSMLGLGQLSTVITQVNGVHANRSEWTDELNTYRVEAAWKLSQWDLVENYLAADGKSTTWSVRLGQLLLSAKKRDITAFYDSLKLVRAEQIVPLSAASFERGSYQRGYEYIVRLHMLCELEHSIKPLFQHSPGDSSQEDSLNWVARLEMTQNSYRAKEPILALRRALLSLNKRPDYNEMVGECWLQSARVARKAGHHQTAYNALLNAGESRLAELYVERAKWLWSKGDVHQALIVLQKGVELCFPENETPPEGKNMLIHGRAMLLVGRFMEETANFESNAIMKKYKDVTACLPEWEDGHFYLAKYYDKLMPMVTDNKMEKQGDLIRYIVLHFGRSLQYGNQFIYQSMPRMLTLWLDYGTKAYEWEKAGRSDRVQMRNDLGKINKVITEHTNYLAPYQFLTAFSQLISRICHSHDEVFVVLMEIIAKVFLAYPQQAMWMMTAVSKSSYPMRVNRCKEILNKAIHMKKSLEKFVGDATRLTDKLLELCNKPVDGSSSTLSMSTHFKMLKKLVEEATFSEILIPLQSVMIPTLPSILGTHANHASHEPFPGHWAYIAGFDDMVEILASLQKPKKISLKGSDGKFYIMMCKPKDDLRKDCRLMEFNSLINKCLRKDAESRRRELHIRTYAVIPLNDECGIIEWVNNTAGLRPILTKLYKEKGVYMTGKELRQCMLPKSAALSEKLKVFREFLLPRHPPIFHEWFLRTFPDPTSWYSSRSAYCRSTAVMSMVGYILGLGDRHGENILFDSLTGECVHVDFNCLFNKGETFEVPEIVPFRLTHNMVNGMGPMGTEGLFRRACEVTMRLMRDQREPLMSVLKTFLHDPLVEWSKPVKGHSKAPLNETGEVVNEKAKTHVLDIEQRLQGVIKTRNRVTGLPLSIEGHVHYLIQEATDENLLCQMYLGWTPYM
PDPK1, construct: Full length, human, sequence (O15530 whole entry, looked up): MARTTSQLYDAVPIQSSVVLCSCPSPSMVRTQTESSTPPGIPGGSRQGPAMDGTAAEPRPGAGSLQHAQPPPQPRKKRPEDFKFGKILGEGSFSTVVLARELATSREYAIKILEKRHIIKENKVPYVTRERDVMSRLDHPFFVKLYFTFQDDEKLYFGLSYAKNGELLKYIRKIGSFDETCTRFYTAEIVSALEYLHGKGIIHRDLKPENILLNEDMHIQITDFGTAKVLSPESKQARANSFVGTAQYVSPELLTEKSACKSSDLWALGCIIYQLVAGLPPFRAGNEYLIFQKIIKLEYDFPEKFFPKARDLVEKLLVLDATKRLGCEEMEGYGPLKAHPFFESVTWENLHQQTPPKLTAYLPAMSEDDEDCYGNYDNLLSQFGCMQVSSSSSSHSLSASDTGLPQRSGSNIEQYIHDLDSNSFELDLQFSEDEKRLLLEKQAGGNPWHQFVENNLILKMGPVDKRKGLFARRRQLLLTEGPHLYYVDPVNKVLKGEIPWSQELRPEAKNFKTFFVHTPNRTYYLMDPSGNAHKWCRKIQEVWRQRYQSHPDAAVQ

PIM2, construct: Full length with a 14aa C-terminal extension from Gateway cloning, human (from UniProt Q9P1W9)
relative phosphorylation
Details | at +1 | at +2 | at +3 | at +4 | at -1 | at -2 | at -3 | at -4 | at -5
A fixed | 1.17 | 0.889 | 0.802 | 0.851 | 0.852 | 0.568 | 0.578 | 0.935 | 0.695
D fixed | 0.638 | 0.729 | 0.859 | 0.833 | 0.593 | 0.32 | 0.269 | 0.497 | 0.413
E fixed | 0.834 | 0.713 | 0.752 | 0.764 | 0.587 | 0.343 | 0.295 | 0.666 | 0.413
F fixed | 0.653 | 0.75 | 0.909 | 0.874 | 0.887 | 0.911 | 0.388 | 0.776 | 0.547
G fixed | 3.18 | 0.978 | 0.99 | 1.08 | 0.814 | 0.418 | 0.43 | 0.891 | 0.789
H fixed | 0.871 | 1.48 | 1.31 | 1.04 | 1.16 | 2.64 | 0.78 | 1.01 | 1.01
I fixed | 0.723 | 0.606 | 0.709 | 0.841 | 0.699 | 0.541 | 0.366 | 0.837 | 0.588
K fixed | 1.14 | 1.33 | 1.24 | 1.28 | 1.33 | 1.7 | 1.91 | 1.9 | 2.91
L fixed | 0.663 | 0.664 | 0.721 | 0.793 | 0.912 | 0.594 | 0.381 | 0.79 | 0.608
M fixed | 0.861 | 0.71 | 0.783 | 0.845 | 0.921 | 0.649 | 0.397 | 0.985 | 0.6
N fixed | 1.11 | 1.07 | 0.958 | 1.11 | 1.18 | 1.04 | 0.48 | 0.988 | 0.728
P fixed | 0.727 | 1.13 | 1.04 | 1.3 | 1.86 | 0.524 | 0.453 | 0.755 | 0.791
Q fixed | 1.04 | 1.02 | 1.1 | 1.05 | 0.875 | 0.787 | 0.591 | 0.948 | 0.807
R fixed | 1.34 | 2.57 | 2.27 | 1.62 | 1.55 | 3.21 | 8.41 | 2.6 | 4.14
V fixed | 0.765 | 0.65 | 0.695 | 0.793 | 0.871 | 0.571 | 0.405 | 0.906 | 0.642
W fixed | 0.626 | 0.867 | 0.955 | 1.05 | 0.701 | 1.07 | 0.475 | 0.738 | 0.576
Y fixed | 0.66 | 0.848 | 0.923 | 0.885 | 1.2 | 1.11 | 0.395 | 0.777 | 0.741
pThr fixed | 0.857 | 0.654 | 0.668 | 0.888 | 0.379 | 0.35 | 0.342 | 0.632 | 0.471
pTyr fixed | 0.608 | 0.69 | 0.846 | 0.748 | 0.862 | 0.62 | 0.325 | 0.545 | 0.522

ATR, construct: Full length, human (from UniProt Q13535)
relative phosphorylation
Details | at +1 | at +2 | at +3 | at +4 | at -1 | at -2 | at -3 | at -4 | at -5
A fixed | 0.714 | 1.01 | 1.05 | 1.05 | 1.46 | 1.01 | 1.01 | 0.94 | 0.971
D fixed | 0.582 | 1.07 | 1.13 | 0.968 | 0.86 | 0.785 | 0.814 | 0.984 | 1.17
E fixed | 0.586 | 1.07 | 1.21 | 0.929 | 0.742 | 0.871 | 0.88 | 1.18 | 1.07
F fixed | 0.709 | 0.913 | 0.944 | 0.988 | 0.872 | 0.957 | 1.08 | 1.18 | 1.3
G fixed | 0.651 | 0.921 | 0.965 | 1.13 | 1.26 | 0.839 | 0.875 | 1.05 | 1.01
H fixed | 0.624 | 1.06 | 0.991 | 1.02 | 0.845 | 0.973 | 0.889 | 0.982 | 1.01
I fixed | 0.747 | 0.898 | 0.866 | 0.875 | 0.687 | 0.793 | 1.1 | 0.912 | 0.818
K fixed | 0.649 | 0.923 | 0.877 | 0.928 | 0.806 | 1.09 | 0.911 | 0.919 | 0.884
L fixed | 0.73 | 0.871 | 0.887 | 0.993 | 1.26 | 0.84 | 1.18 | 0.901 | 0.901
M fixed | 0.685 | 0.908 | 0.92 | 0.995 | 0.978 | 0.94 | 1.12 | 0.96 | 0.931
N fixed | 0.933 | 1.05 | 1 | 1.02 | 1.17 | 0.945 | 0.816 | 0.892 | 0.877
P fixed | 0.689 | 1.14 | 1.18 | 1.19 | 1.45 | 1.59 | 0.972 | 0.956 | 0.909
Q fixed | 5.91 | 1.23 | 1.09 | 0.994 | 1.2 | 1.03 | 0.859 | 0.926 | 0.871
R fixed | 0.83 | 1.09 | 0.972 | 0.97 | 0.855 | 1.67 | 1.62 | 0.982 | 1
V fixed | 0.665 | 0.967 | 0.988 | 0.849 | 0.725 | 0.768 | 0.884 | 0.867 | 0.802
W fixed | 0.618 | 0.926 | 0.934 | 1.11 | 0.842 | 0.916 | 1.08 | 1.26 | 1.23
Y fixed | 0.671 | 0.971 | 1 | 0.984 | 0.987 | 0.99 | 0.911 | 1.11 | 1.23
pThr fixed | 0.679 | 0.968 | 1.36 | 1.1 | 0.799 | 0.849 | 0.99 | 1.38 | 1.3
pTyr fixed | 0.62 | 1.01 | 1.03 | 1.44 | 0.904 | 1.14 | 1.83 | 2.14 | 1.62

WNK1, construct: aa171-529, human (from UniProt Q9H4A3)
relative phosphorylation
Details | at +1 | at +2 | at +3 | at +4 | at -1 | at -2 | at -3 | at -4 | at -5
A fixed | 0.732 | 1.03 | 0.811 | 0.927 | 1.25 | 1.57 | 0.952 | 1.02 | 0.944
D fixed | 0.238 | 1.07 | 0.679 | 0.746 | 0.328 | 0.241 | 0.314 | 0.487 | 0.493
E fixed | 0.257 | 0.75 | 0.619 | 0.759 | 0.445 | 0.263 | 0.371 | 0.536 | 0.53
F fixed | 1.18 | 0.759 | 1.52 | 1.24 | 0.802 | 0.764 | 0.799 | 0.86 | 1.12
G fixed | 0.84 | 0.934 | 0.828 | 0.839 | 1.1 | 2.18 | 0.926 | 0.88 | 0.867
H fixed | 0.762 | 0.794 | 1.17 | 0.888 | 0.887 | 1.31 | 0.979 | 1 | 0.932
I fixed | 1.17 | 1.24 | 0.89 | 1.13 | 0.75 | 0.748 | 0.85 | 0.951 | 0.955
K fixed | 1.22 | 1.19 | 1.43 | 1.5 | 2.19 | 1.44 | 2.48 | 2.01 | 1.82
L fixed | 1.34 | 0.984 | 0.958 | 1.02 | 0.891 | 0.641 | 0.951 | 1.02 | 1.22
M fixed | 1.82 | 0.899 | 0.954 | 0.952 | 1.07 | 0.597 | 0.855 | 0.952 | 0.974
N fixed | 0.895 | 0.665 | 0.783 | 0.719 | 0.719 | 0.714 | 0.606 | 0.872 | 0.712
P fixed | 0.288 | 0.457 | 0.582 | 0.936 | 0.586 | 1.25 | 1.01 | 0.763 | 0.819
Q fixed | 1.18 | 0.65 | 0.734 | 0.861 | 1.21 | 0.954 | 0.845 | 0.795 | 0.698
R fixed | 2.01 | 2.97 | 1.69 | 1.37 | 2.5 | 2.25 | 2.63 | 1.83 | 1.54
V fixed | 0.986 | 1.21 | 0.809 | 0.992 | 0.971 | 0.957 | 0.961 | 1.06 | 1.12
W fixed | 0.888 | 0.635 | 1.23 | 1.08 | 0.574 | 0.462 | 0.621 | 0.856 | 1.11
Y fixed | 1.18 | 0.759 | 1.31 | 1.03 | 0.735 | 0.669 | 0.858 | 1.1 | 1.15
pThr fixed | 0.58 | 0.863 | 0.707 | 0.803 | 0.61 | 0.852 | 0.854 | 0.882 | 0.702
pTyr fixed | 0.662 | 0.911 | 0.849 | 0.78 | 0.789 | 0.573 | 0.806 | 0.666 | 0.637

PDPK1, construct: Full length, human (from UniProt O15530)
relative phosphorylation
Details | at +1 | at +2 | at +3 | at +4 | at -1 | at -2 | at -3 | at -4 | at -5
A fixed | 0.609 | 1.18 | 0.927 | 1.02 | 0.812 | 1.48 | 1 | 1.13 | 1.12
D fixed | 0.37 | 0.618 | 0.647 | 0.802 | 0.519 | 0.523 | 0.571 | 0.935 | 1.25
E fixed | 0.402 | 0.537 | 0.665 | 0.815 | 0.518 | 0.561 | 0.615 | 0.927 | 1.04
F fixed | 4.59 | 1.23 | 1.31 | 0.991 | 1.22 | 1.33 | 0.794 | 0.958 | 0.875
G fixed | 0.638 | 0.747 | 1.19 | 1.13 | 1.43 | 1.16 | 1.04 | 1.27 | 1.21
H fixed | 0.602 | 1.26 | 1.04 | 1.01 | 0.954 | 1 | 0.863 | 0.982 | 0.919
I fixed | 1.15 | 1.16 | 1.07 | 0.955 | 0.673 | 0.733 | 0.789 | 0.909 | 0.973
K fixed | 0.798 | 0.985 | 0.977 | 1.01 | 1.32 | 1.18 | 1.18 | 1.06 | 0.956
L fixed | 1.16 | 1.01 | 0.967 | 1 | 0.958 | 0.974 | 0.779 | 0.863 | 0.826
M fixed | 1.89 | 1.13 | 1.01 | 1.02 | 1.22 | 0.866 | 0.775 | 0.846 | 0.859
N fixed | 0.515 | 0.759 | 0.822 | 0.822 | 1.11 | 0.931 | 0.754 | 0.866 | 0.864
P fixed | 0.556 | 0.755 | 0.774 | 1.39 | 1.03 | 0.834 | 1 | 1.11 | 1.14
Q fixed | 0.622 | 0.722 | 0.77 | 0.871 | 0.847 | 0.94 | 0.843 | 0.89 | 0.788
R fixed | 0.875 | 1.18 | 1.29 | 1.21 | 1.61 | 1.49 | 3.72 | 1.18 | 1.09
V fixed | 0.664 | 1.21 | 1.02 | 0.868 | 0.661 | 0.71 | 0.762 | 1.07 | 1.19
W fixed | 0.709 | 0.98 | 1.28 | 1.13 | 0.873 | 0.987 | 0.749 | 0.994 | 0.919
Y fixed | 0.848 | 1.54 | 1.25 | 0.947 | 1.24 | 1.3 | 0.761 | 1.02 | 0.99
pThr fixed | 0.497 | 0.664 | 0.71 | 0.809 | 0.604 | 0.738 | 0.854 | 1.12 | 1.62
pTyr fixed | 0.432 | 0.616 | 0.903 | 0.852 | 0.738 | 0.821 | 1.13 | 2.5 | 2.94
